{"source": "the DeepSol protein solubility set"}
{"experiment": "soluble on expression in E. coli; label from the status in PepcDB or PDB records"}
{"sequence": "MGSDKIHHHHHHMLEELRTLVLFAEEGSIQNVARRLPLTQPAVTRQMQRLEDMLATTLLDRRQKPPRLTAAGLEVLARAKDILASVEALKAFAADAEPQGVLRVGLAHGLSDASIAGAIAGAAAAFPKISLRLKTGWSAELIEQFERGQLDMAIVLRPADHQGPDALGTERLCIIAQAGAHLTDARVPMPWVLSPEPCDARQTLLSSLGGERHPLIVAAEIQDPAMQMEWVRRGHGLGLMPLRLAARGLPDGLALVDLEDVDLSLQVVALRSPHLNRLAKAVEAIAQTVGEAIKIEA", "soluble on expression in E. coli": "not soluble"}
{"sequence": "MDWNHYRFRSRWPLPAPAPDVYRALERIEDYPRWWPQVREVTRLDDTSGLLRFRSLLPYDLTATVREQRRDPTEGVLEVAMSGDMEGWARWTVAPRGSASLVRYDQEVVVRKPLLRRLAVPGRPLFRANHRLMMRAGRRGLAAHLAGGRQAVLEHHHHHH", "soluble on expression in E. coli": "soluble"}
{"sequence": "MGSDKIHHHHHHMRERTVDYSFCGMVRSRERLARQIVFHHIPKTAGSSFNQILRTLYRDDEVCDAALDDELDEVMADETRRYELFVGHFSFDALHRHFGGATRLTFLRDPVQRCISQYHNWHDASRYSDAWIGRSDTNPDVIKALKMTSEMSLCEFVSSDNLVISDSAQNMMTRYLAPSVEWKKERGYYDAELVEKAKRNLVEYFHFFGLTEQFDRSLVLLAHTLGIRPWERSDALLTNRNPKKASFDSVYNTTPEEGGVLRDYNLMDIELYEFAVKEFNRRFDAGYQKLVECAFEYLADKDTRDMGNAGDFYAFDMTNAVGARGLHFLESTRLPCGADVLGRWTGLEPRAVWEIPLRAGRDSHVVIEVDYIDSVSPEALAPEHFTLNGMPARQHAFSAEGSIQRLRLVFSAGAALAGRMLHTLKLTTPLVRAEDGTRDVGVLLLRLQSYSV", "soluble on expression in E. coli": "not soluble"}
{"sequence": "MGSDKIHHHHHHENLYFQGMRFLAYFGHLNIDVLISVDSIPREGSVNVKDLRPRFGGTAGNFAIVAQKFRIPFDLYSAVGMKTHREYLAMIESMGINTGHVEKFEDESGPICYIATDGKKQVSFMHQGAMAAWAPQLADEYEYVHFSTGPNYLDMAKSIRSKIIFDPSQEIHKYSKDELKKFHEISYMSIFNDHEYRVFREMTGLSSPKVTTIVTNGERGSSLFMDGKKYDFPAIPSSGDTVGAGDSFRAGLYLALYNRRSIEKGMIYGTIIAHHVIDDGIENFSLNMEDLERETENYRRMFTKRS", "soluble on expression in E. coli": "soluble"}
{"sequence": "MSASFDRYVSFQHCDWEGRSERVMQRLQRHVEAAENPFWAYFAQKRAELRDKQGLDDLRILHNYLPTLRELLEDNGDLETLEMLEDLEANLM", "soluble on expression in E. coli": "not soluble"}
{"sequence": "GASCSGGDKSKAPVVSTADIENAAEVIKYYNTSLGVLKDMVKEKDVNAVLDYMEQKGKTPALSAIVPPAVVSKDSAIVLNPGNCFNEETRRNLKQNYTGLFQARTEFYANFDTYLSYLKKKDVTNAKKLLDVNYQLSTQMSEYKQNIFDILSPFTEQAELVLLVDNPLKAQIMSVRKMSSTMQSILNLYARKHRMDGPRIDLKVAELTKQLDAAKKLPVVNGHEGEMKSYQAFLSQVETFIKQVKKVREKGEYSDADYDMLTSAFETSII", "soluble on expression in E. coli": "soluble"}
{"sequence": "MERVTVRMARSDRRTPWGFGVTEAPDGAVLIVNVIGGSLADRAGLRNGDVVDRLEDLDNLDINAVDRLLVTAHEKIELIVTRQPSGAATRIWRPEVTENTGPGQDQTPYRVNLQHSSDTRPPQGFNNSALPFETDQRVKHMQYNSPLGIYSDKSAAEQYVQQTQGLGDNSGARAAAQRQDEPAYLRSETLRLLKEQEHGSAGGAGTTLSNHPNPSGLPVCFMCTRPILGVMARAAGKNLHGDCLSCATCGNSLRNVGHHFIEDKFYCDIHGTQRKHGGRPGMDPNIFVKSSPTAAQPVHIQDSPRAAYHPQVNTARPVSVSPAPSAGSKTVTTHYHTPKTQGILSPGQRGVPTAAFGADLSKSVTYGGGVGPGGTHYDSNRLSPAPSQYSTQSRNQSQQHYQQHVVQAPPPVPSNPPPSNEQQSQSRVQNLPDSVRSAVSPRRSGKSPRQWPPPAMPTTNRYWQIDPADALKKEKVNYGEDLVALIKEVEQSKEKEPKVKKEPKKGTRGARRASNISKEQVQQAFEEQRKRTERKEIKKLEKEIKPKPELKVEVPVEPLVVPTSKPLEEPCPEALPPPKINDGIHWTVIHSPVLRSPSPAKVTSEAAIPESNGVVKPIPSYASQPIGISKTSTPQPFRPGSQVERPHYSSVGLKDVHAPVPLPRSPQHSPQPVQSYIVRSSDANVTTSTNLQTTVTRQYTENDNKSQFLQQPHPDTIDSSTSPIPTIRLNRHTKPEPSTPLSVPTVSINDIATSPIKITEPSRPWRASVSNSATSPIKIHESRVQPVDESRGLHRHEEKAQIETSTIKIHEPSSPPPSVHKFGAVNTRAAPAPVQFMQTPRIAVKIHEPTGPSPTPPSTPSHPIKRDPKHFKKVDFSKTSPTVIPEWKDSADIVDESDILTECSREDDSISFLKAATYDGDESEMIDNNIDNKSDITSTFDIEEEEVDVVQDRERIRVVGRKGGEGGEAEKQWRQRAMELLDDDAQTERDLRIVAALNERLQGLREMEDDDRVRAIECIARHQSELEQTQTQLSTLLESAIVYLQNLRPELELTEPIDNDAKSLETVKFEPTRAEQRVNEIRKKVLEDLEHLPILGDGMDSVPPPPPERKVFPFQSYQPIAPQFPVPAAESPVTQSLHDVLDEFYSLRKPTPTQNVAQSSDTTAEDSRNFLASRLGQVMIDENKKAGGSNGSSQHHNQQGSSYTKTSFERTTTETRPQQNTGAPRAGDFRGTGHLTTTTTTQQNGGRAPFCESCKQQIRGAFVLATGKSWCPEHFVCANSSCRRRLLECGFVEEDGQKFCESCFEQHIAPRCNKCSKPIISDCLNALQKKWHPTCFTCAHCQKPFGNSAFYLEQGLPYCEQDWNALFTTKCVSCRYPIEAGDRWVEALGNAFHSNCFTCARCNHNLEGESFFAKNGQPFCRLHA", "soluble on expression in E. coli": "not soluble"}
{"sequence": "MSLTILELTFATNQLTTTFFNHKLEPLHQKTFPFEALTIEETVPELCQLILAEAAPILGGIVADFPADFFSPEETLALVPQAVIQAFAEQLNTPLLTAAEQAAAPNLLEAFEEKRQYLAWHLDYYGYVPGKNEYAVESLLTVGNGFLGLRGTTPEMTISDDHYPATYIAGLYNTAASEVAGQVVENEDFVNAPDNQHIALKIGDATDWLTISPDTLQQLHRQLNLKTGLFVAEMILKDADNQQIKLTTKKIANMAQPNDYHLQYTFEPLNFSAPITLKTVTDGSVYNYNVARYRNLTAKHFQVTALSAQENKTVIEVCTNQSNLSVRETSLITGDFFEKEAITIQEEAEKIAQVVTVMAHQGTRYTLEKQVFVQASHAEQSWQVPFTPKDSFAAAAQESARAWQTLWQQANITVTGDLMSQKLLRIHSYHLLASASPFSNQAQALDVSITARGLHGEAYRGHIFWDEIFILPFYIQHYPDTAKQLLLYRYHRLEKAKENAAASQYRGAMYPWQSGRDGRETTQKLHLNPLNGHWGEDHSILQRHVSLAIAYNAWLYWHSTQDHEFMKQYGGEMLLEIAQFWNSAATLDDATGRFFIDKVMGPDEFHEGYPDQAESGLKNNAYTNLMVVWLFEELTNILALFSEEEQAQLFAKTQTTSADLARMQQIQNSLEIEVNSDGIIAQYEGYFGLKEIDWTAMKEKYGNIYRMDRILKAEGESPDDYKVAKQADTLMLFYNLDKTRVDQILEDLGYQLPADYLEKNLLYYLKRTSHGSTLSRIVHAQLAEMAQFHELSWQLYQEALYSDYRDIQGGTTAEGIHTGVMAATIHVTLATYAGVDTRQNELSICPNLPEHWQALAFQFIHQGVTYQFSLTQTSVTITADRDTQLLVQGALIPLTAERPKEVHYQEGHHHHHH", "soluble on expression in E. coli": "soluble"}
{"sequence": "MGSDKIHHHHHHMTVFILNGEEPNQEGVRYVAKLLKREKLVEDIHFSTIDEIPLDNSYVLGDHSGTYFILKKIKPNALISLDAHTDLMQDYFDHASWLAYALKDNIIKRASVIGAVLMIPTTSGTKLWKRGVKVFPALPRTKKIRGKWKAYTNLEQHGVERVLKETREFLGKEIYLSIDLDVLSPEYRIARFQHGELTLRELLDIIEAIKKNFKIIAFDVAEISFRVAKSKYGRRAIIEVFSSLKEVFE", "soluble on expression in E. coli": "not soluble"}
{"sequence": "MPKKVVPEEARRRRRPTRQGAVLSEGLIVRTALRMLREHGTGGLTARRLGAALGADPSTLYRYFAGMDDLARAVGNELMGQALDGWTAQGDWRADLRSLGLALHSSYLAHPQAAVLTASRVSGRPREIAVDEAILGLLRGAGLTDRAAVRFYHAFIDLALAFAALDAGSLALPEEARRSDEDMWGTTYARLPAETHPNIAATAERLAARMPHSAYPVVLDTLLDGIAAELTGTAPEM", "soluble on expression in E. coli": "not soluble"}
{"sequence": "VASKAIFYHAGCPVCVSAEQAVANAIDPSKYTVEIVHLGTDKARIAEAEKAGVKSVPALVIDGAAFHINFGAGIDDLKGS", "soluble on expression in E. coli": "soluble"}
{"sequence": "MLDSYPGHFLPNTEAPTEEEALIALLALGGYDPDNMDGKPLTMESAVEILRKDGSALASLEEETILNLKETYVNSVGLLGKYVPKVYNGDILFFRSTVIPDWFDPISPNTWLNYLDGQIVQHDIDCRHKDLCQPGPLTEIGQVLAKYLQNKKGVSRV", "soluble on expression in E. coli": "not soluble"}
{"sequence": "MMQIRPVSDLRNKFSEIENIIISNKSPVFLTKNGHGSMVLMSLDMYESLTDNVENRLDEADFQAASTNVRLSHKDVFSDIRSKI", "soluble on expression in E. coli": "not soluble"}
{"sequence": "GDWLDLNTTSSVETGQAIVTLDDAQIALNGIYRLASGHSYYGDNYWYYGDCRAADVQARITKGDGKRVSPYYEYNVLASDNLNIVLPWNTVYKVIRQTNNLIQKIESGSIQSSDTKELNRIKSEALVMRGLSLFNLTRLFGMPYTNDKGASLGVPIETSPSDPTHKPSRSTVAQCYEQVVSDMSNALSGLRQETSNGYINYWAAQALLSRVYLNMGEYQKAYDAATDVIKNNGGRYQLYSYEEYPNVWGQDFQSESLFELYITLSEPSGGTGGEGAPMVYANEATVDWNNLILSEDFLNLLNEDPKDVRHCLTKESVIENNTGLPAAAMHEKVYLAKFPGKTGDDPKTNNICIIRLSEVYLNAAEAGLKKGTDIEEAQGYLNDIISRRTTDTSQQVSTETFTLDRILKERRKELVGEGEVFYDYLRNGLAIERKGSWHLETLKASNAQKIEATDLRIALPIPQSEIDANPNIQQNPR", "soluble on expression in E. coli": "soluble"}
{"sequence": "MPLFGSIFSPKKTPPRKSASLSNLHSLDRSTRELELGLDYGTPTMNLAGQSLKFENGQWVADSVISGGVDRRETQRLRKRNQQLEEENNLLRLKVDILLDMLSETTAESHLKDKELDELKVTNRRRK", "soluble on expression in E. coli": "not soluble"}
{"sequence": "MSLIEKLRNIAIIAHVDHGKTTLVDKLLQQSGTFDSRAETQERVMDSNDLEKERGITILAKNTAIKWNDYRINIVDTPGHADFGGEVERVMSMVDSVLLVVDAFDGPMPQTRFVTKKAFAYGLKPIVVINKVDRPGARPDWVVDQVFDLFVNLDATDEQLDFPIVYASALNGIAGLDHEDMAEDMTPLYQAIVDHVPAPDVDLDGPFQMQISQLDYNSYVGVIGIGRIKRGKVKPNQQVTIIDSEGKTRNAKVGKVLGHLGLERIETDLAEAGDIVAITGLGELNISDTVCDTQNVEALPALSVDEPTVSMFFCVNTSPFSGKEGKFVTSRQILDRLNKKLVHNVALRVEETEDADAFRVSGRGELHLSVLIENMRREGFELAVSRPKVIFREIDGRKQEPYENVTLDVEEQHQGSVMQALGERKGDLKNMNPDGKGRVRLDYVIPSRGLIGFRSEFMTMTSGTGLLYSTFSHYDDVRPGEVGQRQNGVLISNGQGKAVAFALFGLQDRGKLFLGHGAEVYEGQIIGIHSRSNDLTVNCLTGKKLTNMRASGTDEAVVLVPPIRMTLEQALEFIDDDELVEVTPTSIRIRKRHLTENDRRRANRAPKDEGHHHHHH", "soluble on expression in E. coli": "soluble"}
{"sequence": "MMDYPSIDTLLESAHIVTLPMKYPFMGLSERQAVLFEGPNSWAEYSPFMGCNDTRMWLASAIEYGWGNTNVLSVPNLDLDNTNFASRSKYGYIANPQTSNKDHSDNKRFYTQTKNHREIPVNAILPDIPASKMSEILGKDLQGCKCVKIKVGKHFQDRDIHRIRAVLDFMGADTMLRLDANCKWNVSETLNNLDVLEDNDLLENVSYIEQPCRTTRELITLKQKMDTRGYVTKIAIDESLRDLLLHWQKNRKWSNNSGITYTTELRETLSACDMLVLKLQPMGGMRAVADLLESIKNNIKVNVGYTVSSSLETSLGIEMGLALALNLPNITLPVGLATAGLLDADITDDPLLPNKGYITPRKIEVNKKLLNRYAADKRHVVWWHRRIRAAHRALFQDLSD", "soluble on expression in E. coli": "soluble"}
